Test results from the DeepSol protein solubility set.

assay: soluble on expression in E. coli; label from the status in PepcDB or PDB records

Row | Sequence | soluble on expression in E. coli
1 | MVKTTEVVSEVSKVAGVRPWAGIFVVEIQEDILADEFTFEALMRTLPLASQARILNKKSFHDRCSNLCSQLLQLFGCSIVTGLNFQELKFDKGSFGKPFLDNNRFLPFSMTIGEQYVAMFLVKCVSTDEYQDVGIDIASPCNYGGREELELFKEVFSEREFNGLLKASDPCTIFTYLWSLKESYTKFTGTGLNTDLSLIDFGAISFFPAEGASMCITLDEVPLIFHSQWFNNEIVTICMPKSISDKINTNRPKLYNISLSTLIDYFIENDGL | soluble
2 | MVKVTIIIPTYNPREHLIDTLLSVRTQNFTNIEVLIVDDGSTVDVSTLIKPYITADNIRCIRRKNGGTAAARNTGITNSTGEYIAFLDHDDIWLPDKVALQVEALDRNLSCGLTYCNFQILDEQTGSLINPHRQGEGGCMFEKFLYRNYITTASQIMVRRSCFDQLGLFDESLPIVDDYDFYLRLSRCYDIHYDPRVLTHWRSHQFNTSKNYEKTQLGRIKVKETALNRWALSDNQKKILFKGLRRDYYELAYYYLNSEKYSDARNYFRKAVPYRPVKSIVYYLSTCVPGLSYLNMKALKNDFLKLEHHHHHH | not soluble
3 | MVKVVVDASNVAYSTKNENSQPQMSNILAAVKSLEESGDEFVIIADASLRHDIDDKEKFEKLLESENVEEVPAGNDADHFILNIAHNEKAKILSNDKFRDYAAEFKNINSMRIPFVIENGRVTFGKPKSPKKDKNILQHISDEIIKELNFKRWEVYTGKEGLEISPLNIAKQAIIRIDNDNDTSSKLEKVFSKIPMFNKIVDMVDDVEVAAPYVIFVLVHPKDYKLAVKNAGNISVTVADRLRLEKKPLIAVRNDLFTRPGTFELNIMLADEVTEHAPYNVLVRVSTHDEVFIKKNSRNIASTIAGRLGSWKFPFVSVKPDMLLEKPGDFEIELEKGGSLDGLEHHHHHH | soluble
4 | MVLARREALDPRYQYDAALAAAKKGEAAIAVPAGVMIAGYWPIRSEIDPRPLLSAFRAKGARLCLPVVLDAETIAFREFLPDAELVPTGFGTMGPDEHAPLVDPAIMLMPLAGFDRLGHRLGYGAGHYDRALARFAERGLQPLLIGMAFDCQEVDYVPNEPHDIALHQILTESGLRSRAMDLEHHHHHH | not soluble
5 | MVLETPVCSPIDKESSSDDVQLNKPPKKKRKLDVVYPPRDNTSSSSDVKPKVPGYCGVKAIGCNRSDELLAEVALHSYNSQTGTNLELMTVTQVMLQSVAHINYHMILDAFDPANNSLSSIEICLWDAAVKNNEKLRLVTTFCSLEGSGDKGSQWDPNGVDVLYTGVMPKWLDDGALSGSEKLHYYEVNDSDLQENKWLHLYAQVGAYSKWDLGMVKHFPLEIKKVVVQTMEDDIESNLKLKSSNAIFYITFTTSGGVECACIIRQTRNGRPQHMCLEINNVEMDK | soluble
6 | MVLLGRGLLAVGRVAFRRPMIVRHLQYDAFVDRHIGPRRLEQQQMLDFIGYKDLDDLTGTNVPNMIKAEKALELPAPLDEYKMLKELEAIAAQNKIYRSYIGMGYYDTIVPAVISRNILQNIGWISQYTPYQAEISQGRLESLLNFQTMIAEMTGLPTTNASLLDEATASAEAVALAARTTKRNKIVVDSFCHPQNLDVIRTRSGPLGIDIEVSDSIEGYAFDDKVAAVVVQYPNTEGRIHQFDELIESAHKNKSLVIMVCDLLSLTILRSPGDLGADIAVGSAQRFGVPLGYGGPHAGFMAVAKHDAKNALGRNIPGRIIGVTKDANGNRALRLALQTREQHIRRDKATSNICTAQALLANMSAMYAVYHGPQRLTEIARGVHKSTAYLAYHLRNAGHEIVHKDYFDTLKIRLKDKAALEETKKRAEEMKMNFRYYEDGDIGVSLDETVKSEDLMDIIYTLNGATEKDVTKLREERWEVACPLIGNSPHSRSSLFLQHPVFNTHQSEQQLVRYMKRLENKDVSLVHSMIPLGSCTMKLNASAELIPITWPTLSSIHPFAPVEQAKGYSRIFGDLEKWLCEITGYDNFSLQPNSGANGEYAGLLAIRNYLIHKGEEQRNICLIPTSAHGTNPASAQMANMKVVVVDSDHHGNINYKDLAAKAEKYSNQLAAIMVTYPSTHGVFESSIRDVCDKVHEHGGQVYLDGANMNAQVGLCRPGDYGSDVSHLNLHKTFCIPHGGGGPGVGPIGVKKHLAPFLPGHSVVPVDGRKVGSVASAPYGSASILAITWAYIRMMGPVGLREASQVAILNANYMAKRLENDYRIVYKDEQGLVAHEFIMDCKPFKKHGIEVVDIAKRLMDYGFHSPTMSWPVHDCLMIEPTESEDKAEMDRLVEALLSIREEIRQVENGSLDKHLNPLKMAPHTLEKVTSDNWNMPYSRELAAFPKPWCTHKAWPTVGRVDDQYGDRNLVCTCPPIESYQ | not soluble
7 | MVLRKLSTYRQKRDFEKTPEPSGEAAVASSKQRRFVIQKHDASRLHYDFRLEFDGVFKSWAVTKGPSLDPHDKRLAVEVEDHPLDYGDFEGTIPEGQYGGGTVMLWDRGTWEADDPERGFKKGDLKFTLHGEKLHGSWVLVRMRNDRDGGKRTNWLLIKHRDEYAREGEDILAEDKSVASGRAMAQIAEGKGLEHHHHHH | not soluble
8 | MVMAAVIHKKGGPDNFVWEEVKVGSPGPGQVRLRNTAIGVNFLDTYHRAGIPHPLVVGEPPIVVGFEAAAVVEEVGPGVTDFTVGERVCTCLPPLGAYSQERLYPAEKLIKVPKDLDLDDVHLAGLMLKGMTAQYLLHQTHKVKPGDYVLIHAAAGGMGHIMVPWARHLGATVIGTVSTEEKAETARKLGCHHTINYSTQDFAEVVREITGGKGVDVVYDSIGKDTLQKSLDCLRPRGMCAAYGHASGVADPIRVVEDLGVRGSLFITRPALWHYMSNRSEIDEGSKCLFDAVKAGVLHSSVAKTFPLREAAAAHKYMGGRQTIGSIVLLPQA | soluble
9 | MVNTLEGLESTRNLILKENPMRRAAELVARLSADEVTMRAAKYELIKFNRAFQNFMLVLDENIEEILMSNDNSTRIQLKKLPEFPSFSDSFMQEYEKALLNGAEKLKASTSSEKGSIPSVSFSSSISSSSAELSDARCLICLDDVISTEKTIKCNSCRRRFHLDCASQWFKEKSVCPACNRGMLDPTEFPSL | not soluble
10 | MVQFLAQMPTGTSSFQAAITENEEGRLFEKYGQLLQESPPASNRPSLGIEGASGLPRPGMCPGRDCSPGSCLAALCPRPPPLYLMVPGKASGMAEAELRATLPCSCGSIPLSTPKR | soluble
11 | MVQKLSRPSPDFLKGLKSILQGDHPSLKQLEQDINIFYMNQRQSQSMLEERKLYVALVRKYLKSEGVTKQLASQGIKLRGLSVFGSFPTHCASKDSDLDLCVCATATGNKKQLPVIILQAIFRDMMYSKEGQNIFGENVVSGISFVQTAKVPIIRFKINDVPVDLSATFDDNPRTSLAAKYINAYCQLDDRFKILVMFLKKWMKSEGRAEDHLRIYPNSYSIILLLIHVLQWYDILPNLHQTHSDLFHRGNFKLSDLAELRHEFKFPLDENTISMHRKRPSNDLTVVQLLYLFACQYSNHVVLLNYRFNMRNGEIEALSQKDQDYQITILDAYDVRNPGRSARNALDLVKTLEALKSLLVQPHEGMFKTVMEITRNRTYERVVPPPQVLYQDYDMQFGADPYNMPLVGSVEYQQWLEQVAMHHQIQMMQGQMMQQQIVFTAPEMYYYSQQQQQPHPIFGIQQSSQFF | not soluble
12 | MVQNIPIYIQIHDKIKEDIEKGVWSIGDRLPSERELALKFDVSRMTLRQAIQTLADEGILERKIGSGTYVARKKVQETMTGTTSFTEITLSQNRVPSSRTVSYFVAKPSSSEMEKLQLGPEDSILRMERIRFADDIPICFEVASIPYSLVSQYGKSEITNSFYKTLEAKSGHKIGHSNQTISAVQASEQIAEYLEIKRGDAILRVRQVSYFENGLPFEYVRTQYAGSRFEFYLEK | not soluble
13 | MVRVDQNLFNEVMYLLDELSQDITVPKNVRKVAQDSKAKLSQENESLDLRCATVLSMLDEMANDPNVPAHGRTDLYTIISKLEALS | soluble
14 | MVSAMSNIWSNWSGFVTAEPRLIASPADAGELGDLVRTAPGPVRVVGAGHSFTPLVKSQGTILSLEKLEGLVSHDPQKHQARVKAGTRLGPLMHILQGIGQGLPNMGDIDRQAIGGALGTATHGSGPTLGAYHTQLETVQIVDGLGKVRDFTRAGDQDMIHAIGVALGAFGVLSEVTLNNIATYRLRRRKWVLPIGDMLRDFEKMMTAHRSAEFYYIPFSGYAQFIASDFSTEATTTRPTDDDEGSLRTLRRLRTGLAWLPSLRRRLILGAVAKVPSEDYVQDWLNVYASDRQTKFNEMEYHLPFEEGPKALAEIIELTEKRFPEVYFPMEVRSVAPDKFWLSPFYNRPTCSIAIHHDAASDPLPFMQAAEPIFRRYGGRPHWGKMHSLKAADFKKLYPRWDDAMAVRRDIDPQNRFVSPYMAGLFGIEPSPFGIDPLEHHHHHH | not soluble
15 | MVSDISNSRILRRRSSTFTDPTNLLAVHELRSRILQDPAISVKHLSDDVHRIRHEDWWLDRFLGSVNYDVDIAYAIMLECLKWRRNFEVDRISLLSLKPLLDNQLMYLHGKDLQNRHMLWIMMNKYKNGDDGFEKLFTFWIERHYMEYKGCQPLTVFIDMTGTGLKNMSFDAMKFIIHSSKYYYPNSIESILIFENPAILNASWKVIGSWLESSAASQRHDLLTFVTKLSVTHYVPKSHLLEHQGGTDTFKFTMDELAKCLPPPPPPKPSPKLLQQRMHSIDDSTNNNNVKFDEESTTKRAPSLSRRSSRGPKSRKSHIPPSLRPLIENRVNAPSDDWSSNDFVSITPRDELRLEKLDGENDLLDVVLVKNQSSDTPIMFKFKTTSPEKFRVRPSSGIVQPGTTEIIRVYLQYGESTDTRGTKKSFCFLQWNRHQQTLKASLNSSNQQATRQNSNSNVDCQKI | not soluble
16 | MVSENSDATNVETTALALKILVAGGFGVGKTTMVGAVSEIRPLRTEELLSEAGQSVDDTDGVDQKVTTTVAMDFGRITIRSGLSLYLFGTPGQDRFWFLWDELSQGALGAVVLADTRRLEDCFPAVDYFEHRHIPFVVAVNCFAGARTYGAHDVSRALDLDQGTPVVLCDARDRDSGKEVLIRLVEYAGRMHTARLLDSVGLEHHHHHH | not soluble
17 | MVSLTMVPIDALLSKEVNAFIVQHKHASVAELMLRMPVFTVDSRWIAAQIEGWQKASQKLPLWASTENIIYPIRLSMEQCSSERTAHYKSTLMSGERLVDLTGGFGVDSFYLSKSFNEVIYIEQQEDLAEIAAHNFSTLNQNNIVVKTADSDEYLKDIAEKIDVIFLDPARRKEMRKVYKLSDCEPNVVALQSFYFSKADVILIKTSPMLDITEATRQLTGIKEIHVVSVDNECKEVLYLLEKNYSGKATYICAHDYKKQLQLFSFTIAAEQAVTLSYSAPLAYLYEPNPSILKAGGFNSITQKYEVFKLHASSHLYTSASEVSDFPGRTFKIKETVGYSKKDIQAAVPGGKANIQTRNFPDSVEAIRKKTGLKDGGNIFIFATTLHDLSKVLLICEKI | not soluble
18 | MVSYGSHSSEVSKVLKTPKFVLRYGNVSSKQRFALKRKINYKLRESKYQEYLNEYNTFVLYDWENSGAGSLVDSSYNLPSLWKEFITEGISKGAINDKLPTVFMKRKLTNSALGHCLGLDFLTDPSESEHEYRCMFQTVQDIPSLSQLILFNSMPNVPVRLKLHTIGININFGCKRSLISNGGDQDTEMSEAVSYIQPLLEESSRMYRNLNYWKLLKIARNNKKDEPLDQSTRIKSQVKLLLSQLATNRITSPSVTDHGGHNWLIFTRRRL | not soluble
19 | MVTPSLRLVFVKGPREGDALDYKPGSTIRVGRIVRGNEIAIKDAGISTKHLRIESDSGNWVIQDLGSSNGTLLNSNALDPETSVNLGDGDVIKLGEYTSILVNFV | soluble
